Test results: paper PMC11996864, “A small-molecule inhibitor of BCL10-MALT1 interaction abrogates progression of diffuse large B cell lymphoma” (The Journal of Clinical Investigation, 2025)
Values joined by “and” are separate entries in the source; they are usually repeats but may differ in a detail not shown here. Equal values may be shown once.

T1: BCL10 (Homo sapiens, UniProt O95999)
T1 construct: Full-length GST-BCL10 (Abnova, catalog H00008915-P01) was immobilized onto a gold sensor chip surface; GST (N); purchased Abnova H00008915-P01
T1 sequence (O95999 1-233): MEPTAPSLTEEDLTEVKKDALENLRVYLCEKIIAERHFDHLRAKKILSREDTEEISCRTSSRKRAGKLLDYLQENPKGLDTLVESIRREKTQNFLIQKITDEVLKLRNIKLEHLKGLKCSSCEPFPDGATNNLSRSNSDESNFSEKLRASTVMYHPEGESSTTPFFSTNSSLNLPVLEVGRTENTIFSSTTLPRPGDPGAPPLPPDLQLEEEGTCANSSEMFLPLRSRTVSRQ

T2: Full-length GST-BCL10 (UniProt O95999 1-233)
T2 construct: BCL10, full length; also called immobilized BCL10; source: bought: Abnova, catalog H00008915-P01
T2 sequence (looked up): T1 sequence (O95999 1-233)

B1: MALT1(DD+Ig1-2) purified protein (domain or fragment)
chain: MSLLGDPLQALPPSAAPTGPLLAPPAGATLNRLREPLLRRLSELLDQAPEGRGWRRLAELAGSRGRLRLSCLDLEQCSLKVLEPEGSPSLCLLKLMGEKGCTVTELSDFLQAMEHTEVLQLLSPPGIKITVNPESKAVLAGQFVKLCCRATGHPFVQYQWFKMNKEIPNGNTSELIFNAVHVKDAGFYVCRVNNNFTFEFSQWSQLDVCDIPESFQRSVDGVSESKLQICVEPTSQKLMPGSTLVLQCVAVGSPIPHYQWFKNELPLTHETKKLYMVPYVDLEHQGTYWCHVYNDRDSQDSKKVEIIIDELNNLGHPDNKEQTTDQ
modifications: Printed as aa 1-326, MBP tag removed by TEV. Taken in isoform B numbering (lacks 309-319): the paper uses isoform B (C-terminus at 813), and the 3K0W construct, 199 residues after its tag and ending …
B2: MALT1(Ig1-2) purified protein (domain or fragment)
chain: KITVNPESKAVLAGQFVKLCCRATGHPFVQYQWFKMNKEIPNGNTSELIFNAVHVKDAGFYVCRVNNNFTFEFSQWSQLDVCDIPESFQRSVDGVSESKLQICVEPTSQKLMPGSTLVLQCVAVGSPIPHYQWFKNELPLTHETKKLYMVPYVDLEHQGTYWCHVYNDRDSQDSKKVEIII
notes: MALT1, tandem Ig-like domains Ig1 and Ig2; PDB 3K0W is the published MALT1(Ig1-2) crystal structure, whose limits may differ from this construct; Host, tags and limits are in Supplemental Methods; source: purified protein (purification in Supplemental Methods)
B3: MALT1(DD+Ig1-2): Recombinant human MALT1 fragment, death domain plus Ig1-2 domains (aa 1-326) (protein, UniProt Q9UDY8 1-326, looked up, fragment)
chain: MSLLGDPLQALPPSAAPTGPLLAPPAGATLNRLREPLLRRLSELLDQAPEGRGWRRLAELAGSRGRLRLSCLDLEQCSLKVLEPEGSPSLCLLKLMGEKGCTVTELSDFLQAMEHTEVLQLLSPPGIKITVNPESKAVLAGQFVKLCCRATGHPFVQYQWFKMNKEIPNGNTSELIFNAVHVKDAGFYVCRVNNNFTFEFSQWSQLDVCDIPESFQRSVDGVSESKLQICVEPTSQKLMPGSTLVLQCVAVGSPIPHYQWFKNELPLTHETKKLYMVPYVDLEHQGTYWCHVYNDRDSQDSKKVEIIIGRTDEAVECTEDELNNLG
B4: MALT1(DD): Recombinant human MALT1 fragment, death domain only (aa 29-124) (protein, UniProt Q9UDY8 29-124, looked up, fragment)
chain: TLNRLREPLLRRLSELLDQAPEGRGWRRLAELAGSRGRLRLSCLDLEQCSLKVLEPEGSPSLCLLKLMGEKGCTVTELSDFLQAMEHTEVLQLLSP

Assays:
[1] = target: T1, BCL10; assay: ELISA binding of recombinant MALT1 or GRK2 to immobilized BCL10; details: protein added to immobilized BCL10
Protocol: ELISA-based protein-protein interaction assay. On a high-binding 96-well ELISA microplate (Greiner Cat# 655061), 100 ng of His-tagged recombinant human full-length BCL10 protein (Novus Cat# NBP1-99064) or in 100 µl PBS was allowed to adhere overnight at 4°C. The plate was blocked with 5% BSA in PBS for 1 hour at room temperature. After washing twice with PBS-T, a mixture of 100 ng of GST-tagged recombinant human full-length MALT1 protein (Novus Biologicals Cat# H00010892-P01) and compound that was preincubated for 1 hour in 100 μl PBS was added to the plate for 1 hour at room temperature. After washing three times with PBS-T, anti-MALT1 antibody (Cell Signaling Technology, Cat# 2494) in 5% BSA in PBS was added at 1:1000 dilution for 1 hour at room temperature. After washing three times with PBS-T, HRP-conjugated secondary antibody in 5% BSA in PBS was added at 1:5000 dilution for 1 hour at room temperature. After washing three times with PBS-T, 100 µl of 3,3’,5,5’-tetramethylbenzidine (TMB) substrate solution (Thermo Scientific, Cat# 34028) was added for up to 15 minutes, and 100 µl of 2 M sulfuric acid was added to stop the reaction. The plate was read at 450 nm using a spectrophotometer (Molecular Devices SpectraMax i3). […]

[2] = target: T2, Full-length GST-BCL10; assay: SPR; Biacore 2000; full-length GST-BCL10 immobilised on a gold sensor chip surface, purified MALT1 fragments injected as analyte; Langmuir model, global fitting, 1:1 binding; details: both partners purified
[3] = target: T1, BCL10; assay: SPR binding of MALT1 protein fragments to immobilized BCL10
Protocol: Surface plasmon resonance (SPR) experiments were performed on a Biacore 2000 system (Cytiva). Full-length GST-BCL10 (Abnova, catalog H00008915-P01) was immobilized onto a gold sensor chip surface, and analyte solution containing MALT1(DD+Ig1-2), MALT1(DD), or MALT1(Ig1-2) purified protein was injected over the surface through a series of flow cells (see Supplemental Methods for details on protein purification). The binding kinetic parameters were obtained using the Langmuir model for global fitting with 1:1 binding ratio where one ligand molecule interacts with one analyte molecule. The equilibrium dissociation constant (KD) of M1i-124 to full-length GST-tagged MALT1 (Novus, catalog H00010892-P01) protein was determined by Creative Biolabs using Biacore T200. Full-length MALT1 protein was immobilized onto CM5 sensor chip surface, and M1i-124 was injected at concentrations of 0, 12.5, 25, 50, 100, and 200 μM. The steady-state affinity model was used to determine the KD.
Supplemental Materials and Methods
Cell lines and reagents. The DLBCL cell lines OCI-Ly1, OCI-Ly3, and OCI-Ly7 were provided by Mark D. Minden (University Health Network, Toronto, Ontario, Canada) , TMD8 cell line was provided by Louis Staudt (National Cancer Institute, NIH, Bethesda Maryland), and the BJAB cell line was provided by Mathijs Baens (Katholieke Universiteit Leuven, Leuven, Belgium). […]

Molecule | OD450 [1] | Kd [2] | other results
BCL10 + GRK2 | 0.226 and 0.156 |  | 
BCL10 + MALT1 | 0.851 and 0.825 |  | 
B1 |  | 25 nM | 
B2 |  | 29 nM | 
B3 |  |  | Kd ([3]; MALT1 fragment over immobilized BCL10): 25 nM
B4 |  |  | binding to BCL10 ([3]; result in words): no detectable binding
